The values below come from publication PMC9883448.

Experiment in all cases: FRET or BRET; apparent FRET efficiency by donor (CFP) dequenching after photobleaching of the acceptor (YFP) with 514 nm in a membrane region of whole Xenopus oocytes that co-express the two labelled subunits (cRNAs 1:1)
(BRET reads energy transfer from a luciferase to a nearby fluorophore.)

Assay [1] has as its target human mGluR4 FRET sensor subunit (CFP or YFP in the intracellular loop i2, C-terminal tail replaced by a GABAB tail).
The target in assay [2] is human mGluR8 FRET sensor subunit (CFP or YFP in the intracellular loop i2, C-terminal tail replaced by a GABAB tail).
The target in assay [3] is human mGluR3 FRET sensor subunit (CFP or YFP in the intracellular loop i2, C-terminal tail replaced by a GABAB tail).
The target in assay [4] is human mGluR5 FRET sensor subunit (CFP or YFP in the intracellular loop i2, C-terminal tail replaced by a GABAB tail).

“human mGluR2 FRET sensor subunit (CFP or YFP in the intracellular loop i2, C-terminal tail replaced by a GABAB tail) (receptor)”: the apparent FRET efficiency (donor dequenching) in assay [1], in assay [2] and in assay [3] was 35% throughout.
For the substance “human mGluR5 FRET sensor subunit (CFP or YFP in the intracellular loop i2, C-terminal tail replaced by a GABAB tail) (receptor)”, the increase of donor light intensity after photobleaching of the acceptor (FRET efficiency) in assay [4] was 23%.
In the case of “human mGluR4 FRET sensor subunit (CFP or YFP in the intracellular loop i2, C-terminal tail replaced by a GABAB tail) (receptor)”, the apparent FRET efficiency (donor dequenching) in assay [2] was 13%.
